# Assays:
# human CD40 [1] = biological target: T1, human CD40 (human, UniProt P25942 21-277); assay: cell-based or functional assay
# human CD40 [2] = biological target: T1, human CD40; assay: cell-based or functional assay; remark: listed apart in the source
# human CD40 [3] = biological target: T1, human CD40; assay: flow cytometry, Daudi cells, PE anti-human Fc F(ab')2
# Protocol: (§1) The binding to cell surface CD40 was tested using Daudi cells, a human B lymphoblast cell line with high expression levels of human CD40 (ATCC CCL-213). Daudi cells were cultured with 1× Dulbecco's Modified Eagle's Medium (DMEM) (Gibco, Cat. No. 42430-025) supplemented with 10% Fetal Bovine Serum (FBS) (life technologies, Cat. No. 16140, Lot No. 1797306A). 0.3×10⁵ Daudi cells were added in 200 μl of 1×DMEM with 10% FBS to each well of a round-bottom 96-well plate (Greiner Bio-One, CELLSTAR®, Cat. No. 650185). Plates were centrifuged 5 minutes at 1700 rpm and supernatants were flicked off. Cells were washed once with 200 μL of 4° C. cold FACS buffer (eBioscience, Cat. No. 00-4222-26). All samples were resuspended in 50 μL/well of 4° C. cold FACS buffer containing the bispecific antigen binding molecules (primary antibody) or isotype control antibody DP47 at the indicated range of concentrations (in duplicates) and incubated for 120 minutes at 4° C. Afterwards the cells were washed three times with 200 μL 4° C. cold FACS buffer. Cells were further stained with 25 μL/well of 4° C. cold secondary antibody solution (1:50 dilution of secondary antibody) containing R-Phycoerythrin (PE) conjugated AffiniPure F(ab′)₂ Fragment Goat Anti-Human IgG, Fcγ Fragment Specific (Jackson ImmunoResearch, Cat. No. 109-116-098) and incubated for 60 minutes at 4° C. in the dark. Cells were washed with 200 μl FACS buffer and resuspended in 85 μL/well FACS-buffer containing 0.2 μg/mL DAPI (Roche, Cat. No. 10236276001) and acquired the same day using a 5-laser LSR-Fortessa (BD Bioscience with DIVA software). Data analysis was performed using the FlowJo version 10 software (FlowJo LLC).
# human CD40 [4] = biological target: T1, human CD40; assay: flow cytometry, Raji cells, Alexa488 anti-huIgG
# Protocol: CD40 positive cells (Raji cells) were detached from the culture bottle using Trypsin and were counted using a Casy cell counter. After pelleting at 4° C., the cells were resuspended in FACS Buffer (2.5% FCS in PBS), adjusted to 2.0E+06 cells/mL, and dispensed to 96-well PP V-bottom-plates (25 μL/well=5.0E+04Zellen/well).
# The CD40 specific antibodies were adjusted to 20 μg/mL in FACS buffer, resulting in a final concentration of 10 μg/mL. […] were added to 25 μl cell suspension and incubated for 1 h at 4° C. The cells were then washed twice in FACS buffer. After washing, the cells were resuspended in 50 μL FACS-buffer containing secondary antibody (<huIgG>-Alexa488, c=10 μg/mL) and incubated 1 h at 4° C. The cells were then washed twice in FACS buffer and resuspended in 70 μl/well FACS buffer for measurement using a FACS Canto (BD, Pharmingen).
# human CD40 [5] = biological target: T1, human CD40; assay: cell-based or functional assay; remark: listed apart in the source
# [6] = biological target: T2, Human CD40 extracellular domain with C-terminal His-AviTag (human); assay: SPR (Biacore), antibody captured by anti-human F(ab')2, CD40 ECD as analyte, 1:1 model
# T2 construct: analyte in solution in the SPR assays; also called recombinant human CD40_ECD
# Protocol: Around 12000 resonance units (RU) of the capturing system (10 μg/ml goat anti human F(ab)′₂; Order Code: 28958325; GE Healthcare Bio-Sciences AB, Sweden) were coupled on a CM5 chip (GE Healthcare BR-1005-30) at pH 5.0 by using an amine coupling kit supplied by the GE Healthcare. The sample and system buffer was PBS-T (10 mM phosphate buffered saline including 0.05% Tween20) pH 7.4. The flow cell was set to 25° C.—and the sample block set to 12° C.—and primed with running buffer twice. The antibody was captured by injecting a 50 nM solution for 30 sec at a flow of 5 μl/min. Association was measured by injection of human CD40 extra cellular domain or cynomolgus monkey CD40 extracellular domain in various concentrations in solution for 300 sec at a flow of 30 μl/min starting with 300 nM in 1:3 dilutions. The dissociation phase was monitored for up to 1200 sec and triggered by switching from the sample solution to running buffer. The surface was regenerated by 60 sec washing with a Glycine pH 2.1 solution at a flow rate of 30 μl/min. Bulk refractive index differences were corrected by subtracting the response obtained from a goat anti human F(ab′)₂ surface. Blank injections are also subtracted (=double referencing). For calculation of apparent KD and other kinetic parameters the Langmuir 1:1 model was used. The apparent Kd was calculated using the BIACORE® B4000 evaluation software (version 1.1).
# [7] = biological target: T3, mouse fibroblast activation protein (mFAP) (mouse, UniProt P97321 1-761); assay: flow cytometry on NIH/3T3-mFAP cells (3T3_mFAP), PE-labelled anti-human IgG Fcgamma F(ab')2 secondary, MFI baseline corrected
# T3 construct: expressed on transfected NIH/3T3-mFAP clone 26 cells; also called murine FAP; mouse FAP
# Protocol: (§2) NIH/3T3-huFAP clone 19 and NIH/3T3-mFAP clone 26 were generated by the transfection of the mouse embryonic fibroblast NIH/3T3 cell line (ATCC CRL-1658) with the expression vector pETR4921 to express under 1.5 μg/mL Puromycin selection huFAP or mFAP, respectively.
# as §1, with “NIH/3T3-huFAP, NIH/3T3-mFAP or NIH/3T3-wt” for “The binding to cell surface CD40 was tested using Daudi cells, a human B lymphoblast cell line with high expression levels of human CD40 (ATCC CCL-213). Daudi”, “1797306A). For the NIH/3T3-huFAP and NIH/3T3-mFAP cells 1.5 μg/mL Puromycin (Gibco, Cat. No. A11138-03) was added to the medium for selection of FAP-expressing cells. NIH/3T3 cells were removed from the plate by using enzyme-free Cell Dissociation Buffer (Gibco, Cat. No. 13151014).” for “1797306A).”, “NIH/3T3-huFAP clone 19, NIH/3T3-mFAP clone 26 or NIH/3T3-wt” for “Daudi cells”, “1×DMEM” for “1×DMEM with”, “using” for “using a”
# [8] = biological target: T4, human fibroblast activation protein (huFAP) (human, UniProt Q12884 1-760); assay: flow cytometry, NIH/3T3-huFAP clone 19 cells, PE anti-human Fc F(ab')2
# T4 construct: expressed on transfected NIH/3T3-huFAP clone 19 cells; also called human FAP
# Protocol: as §2
# as §1, with “NIH/3T3-huFAP, NIH/3T3-mFAP or NIH/3T3-wt” for “The binding to cell surface CD40 was tested using Daudi cells, a human B lymphoblast cell line with high expression levels of human CD40 (ATCC CCL-213). Daudi”, “1797306A). For the NIH/3T3-huFAP and NIH/3T3-mFAP cells 1.5 μg/mL Puromycin (Gibco, Cat. No. A11138-03) was added to the medium for selection of FAP-expressing cells. NIH/3T3 cells were removed from the plate by using enzyme-free Cell Dissociation Buffer (Gibco, Cat. No. 13151014).” for “1797306A).”, “NIH/3T3-huFAP clone 19, NIH/3T3-mFAP clone 26 or NIH/3T3-wt” for “Daudi cells”, “1×DMEM” for “1×DMEM with”, “using” for “using a”
# [9] = biological target: T5, His-tagged human dimeric FAP (recombinant FAP_ECD) (human, UniProt Q12884 27-760); assay: SPR (Biacore T200), His-tagged dimeric huFAP ECD captured by anti-His, antibody as analyte, 1:1 fit (avidity)
# T5 construct: also called hu FAP ectodomain + poly-lys-tag + his6-tag
# Protocol: The capacity of the bispecific constructs to bind human FAP was assessed by surface plasmon resonance (SPR). All SPR experiments were performed on a BIACORE® T200 (BIACORE®) at 25° C. with HBS-EP as running buffer (0.01 M HEPES pH 7.4, 0.15 M NaCl, 3 mM EDTA, 0.005% Surfactant P20, (BIACORE®).
# His-tagged human dimeric FAP (recombinant FAP_ECD) was captured on a CM5 chip (GE Healthcare) immobilized with anti-His antibody (Qiagen Cat. No. 34660) by injection of 500 nM huFAP for 60 s at a flow rate of 10 uL/min, 10 nM murine FAP for 20 s at a flow rate of 20 uL/min and 10 nM cynoFAP for 20 s at a flow rate of 20 uL/min. Immobilization levels for the anti-His antibody of up to 18000 resonance units (RU) were used. Following the capture step, the bispecific antibodies as well as control molecules were immediately passed over the chip surface at a concentration ranging from 0.78-100 nM with a flow rate of […] for 280 s and a dissociation phase of 180 s. Bulk refractive index differences were corrected for by subtracting the response obtained in a reference flow cell, where no FAP was immobilized. Avidity was determined using the Langmuir 1:1 curve fitting. For bivalent binding the same 1:1 fitting was used leading to an apparent KD value.
# [10] = biological target: T5, His-tagged human dimeric FAP …; assay: method not stated; SPR as in Example 5.3.2 presumed
# T2 sequence (chain, as listed by the source limits assumed): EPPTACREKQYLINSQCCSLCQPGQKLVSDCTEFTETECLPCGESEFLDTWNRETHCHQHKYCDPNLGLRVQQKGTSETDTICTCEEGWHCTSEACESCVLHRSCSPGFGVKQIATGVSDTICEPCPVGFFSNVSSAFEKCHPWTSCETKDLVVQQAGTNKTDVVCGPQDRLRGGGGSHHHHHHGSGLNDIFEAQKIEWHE
# T1 sequence (P25942 21-277 limits assumed): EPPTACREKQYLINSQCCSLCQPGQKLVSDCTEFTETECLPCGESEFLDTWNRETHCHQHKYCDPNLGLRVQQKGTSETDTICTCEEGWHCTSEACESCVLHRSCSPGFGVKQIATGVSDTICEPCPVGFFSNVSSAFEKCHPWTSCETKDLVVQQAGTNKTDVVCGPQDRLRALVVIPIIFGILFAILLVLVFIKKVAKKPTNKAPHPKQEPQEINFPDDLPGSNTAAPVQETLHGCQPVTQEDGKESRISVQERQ
# T3 sequence (P97321 whole entry): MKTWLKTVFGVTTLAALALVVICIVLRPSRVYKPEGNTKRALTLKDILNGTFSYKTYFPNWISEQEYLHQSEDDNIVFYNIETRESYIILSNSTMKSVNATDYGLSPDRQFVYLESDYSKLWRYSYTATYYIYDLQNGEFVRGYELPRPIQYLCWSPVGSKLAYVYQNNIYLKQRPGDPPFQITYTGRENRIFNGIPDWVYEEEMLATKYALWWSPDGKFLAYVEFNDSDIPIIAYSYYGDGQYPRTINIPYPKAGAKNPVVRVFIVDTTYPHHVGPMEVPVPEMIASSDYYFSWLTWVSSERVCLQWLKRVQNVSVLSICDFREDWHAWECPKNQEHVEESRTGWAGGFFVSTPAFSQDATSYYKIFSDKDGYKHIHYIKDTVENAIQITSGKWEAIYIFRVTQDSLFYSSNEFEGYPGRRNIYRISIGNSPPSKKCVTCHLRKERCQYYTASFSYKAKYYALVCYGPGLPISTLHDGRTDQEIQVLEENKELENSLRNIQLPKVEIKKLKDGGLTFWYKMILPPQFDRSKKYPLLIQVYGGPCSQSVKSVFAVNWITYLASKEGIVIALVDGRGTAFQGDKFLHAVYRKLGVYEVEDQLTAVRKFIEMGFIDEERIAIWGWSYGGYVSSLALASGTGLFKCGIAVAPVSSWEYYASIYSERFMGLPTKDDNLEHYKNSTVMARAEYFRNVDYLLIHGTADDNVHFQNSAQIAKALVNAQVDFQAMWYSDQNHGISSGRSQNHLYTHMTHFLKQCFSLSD
"EC50, activation of human B cells with FAP-coated Dynabeads, increase of CD86 expression (human CD40 [1]) [nM]","EC50, activation of HEK-Blue CD40L cells (SEAP) with murine FAP-coated Dynabeads (human CD40 [2]) [nM]",EC50 (human CD40 [3]) [nM],EC50 (human CD40 [4]) [µg/mL],"EC50, activation of human Daudi cells (CD70 expression) with FAP-coated Dynabeads (human CD40 [5]) [nM]",Kd [6] [nM],koff [6] [s⁻¹],kon [6] [M⁻¹ s⁻¹],binding result [7],EC50 [8] [nM],Kd [9] [nM],koff [9] [s⁻¹],kon [9] [M⁻¹ s⁻¹],Kd [10] [nM],EC50 (read off the curve) [7] [nM],Binder
0.072,0.125,0.104,0.09,0.756,4.6,0.00781,1.69e+06,no binding (tested: 500 nM),–,–,–,–,–,–,"P1AD4470 CD40 IgG (antibody, V domains shown, bivalent anti-human CD40 IgG1; cross-linked with anti-human Fc F(ab')2 in the functional assays; also called CD40 IgG1 PGLALA; CD40 IgG1) VH: EVQLVESGGGLVQPGGSLRLSCAASGYSFTGYYIHWVRQAPGKGLEWVARVIPNAGGTSYNQKFKGRFTLSVDNSKNTAYLQMNSLRAEDTAVYYCAREGIYWWGQGTLVTVSS VL: DIQMTQSPSSLSASVGDRVTITCRSSQSLVHSNGNTFLHWYQQKPGKAPKLLIYTVSNRFSGVPSRFSGSGSGTDFTLTISSLQPEDFATYFCSQTTHVPWTFGQGTKVEIKR"
–,–,–,0.09,–,8.7,0.0219,2.53e+06,–,–,–,–,–,–,–,"P1AE0816 CD40 IgG1_LALAPG antibody (control) (antibody, V domains shown, huIgG1 LALA PG; control for acceptor framework 1) VH: QVQLVQSGAEVKKPGASVKVSCKASGYSFTGYYIHWVRQAPGQSLEWMGRVIPNNGGTSYNQKFQGRVTISVDKSISTAYMELSSLRSEDTAVYYCAREGIYWWGHGTTVTVSS VL: DVVVTQSPLSLPVTPGEPASISCRSSQSLVHSNGNTFLHWYLQKPGQSPQLLIYTVSNRFSGVPDRFSGSGSGTDFTLKISRVEAEDVGVYFCSQTTHVPWTFGGGTKLEIKR"
–,–,–,–,–,–,–,–,–,7.99,6,0.00174,291000,1.5,~8,"P1AE0408 CD40 × FAP (28H1) (2 + 1) head to tail (bispecific antibody, human IgG1, kappa, L234A L235A, a CD40 Fab fused to the N-terminus of the FAP crossFab on the knob chain; also called CD40 × FAP 2 + 1 head-to-tail; 2 + 1 head-to-tail format) heavy 1: not shown heavy 2: EVQLVESGGGLVQPGGSLRLSCAASGYSFTGYYIHWVRQAPGKGLEWVARVIPNAGGTSYNQKFKGRFTLSVDNSKNTAYLQMNSLRAEDTAVYYCAREGIYWWGQGTLVTVSSASTKGPSVFPLAPSSKSTSGGTAALGCLVEDYFPEPVTVSWNSGALTSGVHTFPAVLQSSGLYSLSSVVTVPSSSLGTQTYICNVNHKPSNTKVDEKVEPKSCDKTHTCPPCPAPEAAGGPSVFLFPPKPKDTLMISRTPEVTCVVVDVSHEDPEVKFNWYVDGVEVHNAKTKPREEQYNSTYRVVSVLTVLHQDWLNGKEYKCKVSNKALGAPIEKTISKAKGQPREPQVCTLPPSRDELTKNQVSLSCAVKGFYPSDIAVEWESNGQPENNYKTTPPVLDSDGSFFLVSKLTVDKSRWQQGNVFSCSVMHEALHNRFTQKSLSLSPGK light 1: DIQMTQSPSSLSASVGDRVTITCRSSQSLVHSNGNTFLHWYQQKPGKAPKLLIYTVSNRFSGVPSRFSGSGSGTDFTLTISSLQPEDFATYFCSQTTHVPWTFGQGTKVEIKRTVAAPSVFIFPPSDRKLKSGTASVVCLLNNFYPREAKVQWKVDNALQSGNSQESVTEQDSKDSTYSLSSTLTLSKADYEKHKVYACEVTHQGLSSPVTKSFNRGEC light 2: EVQLLESGGGLVQPGGSLRLSCAASGFTFSSHAMSWVRQAPGKGLEWVSAIWASGEQYYADSVKGRFTISRDNSKNTLYLQMNSLRAEDTAVYYCAKGWLGNFDYWGQGTLVTVSSASVAAPSVFIFPPSDEQLKSGTASVVCLLNNFYPREAKVQWKVDNALQSGNSQESVTEQDSKDSTYSLSSTLTLSKADYEKHKVYACEVTHQGLSSPVTKSFNRGEC"

# Source: patent US20250179205A1 (Hoffmann-La Roche, published 2025)
